The values that follow come from publication PMC6787082, “The cell cycle-regulated DNA adenine methyltransferase CcrM opens a bubble at its DNA recognition site”.

Data set [1] deals with T1, CcrM (Caulobacter crescentus, UniProt P0CAW2 1-358). In words: X-ray crystallography (2.34 A); sinefungin; Co-crystallization: protein stock in 20 mM HEPES pH 8.0, 300 mM NaCl, 5% glycerol, 0.5 mM TCEP; ~1:1 monomer:duplex (~56 uM), 5x sinefungin; well 0.1 M HEPES pH 7.8, 10% PEG 8000, 3% PEG 6000; 19 C. The note with it: protein: recombinant; tags: N-terminal His-tag; chain copies: 2; 5' overhang 1 nt on each strand (C and G), 18 bp.
T1 sequence (P0CAW2 whole entry): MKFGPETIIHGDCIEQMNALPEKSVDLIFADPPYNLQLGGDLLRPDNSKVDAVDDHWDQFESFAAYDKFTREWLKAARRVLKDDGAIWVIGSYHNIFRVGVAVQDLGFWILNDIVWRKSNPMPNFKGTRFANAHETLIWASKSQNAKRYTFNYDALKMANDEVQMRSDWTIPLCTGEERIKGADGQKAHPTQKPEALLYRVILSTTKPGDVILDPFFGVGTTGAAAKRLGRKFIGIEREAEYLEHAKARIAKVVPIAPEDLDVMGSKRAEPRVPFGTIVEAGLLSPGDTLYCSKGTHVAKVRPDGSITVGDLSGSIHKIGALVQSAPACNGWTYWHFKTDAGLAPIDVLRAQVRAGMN

For data set [2], the target named is T1, CcrM. In words: X-ray crystallography (2.7 A); sinefungin; Co-crystallization: protein stock in 20 mM HEPES pH 8.0, 300 mM NaCl, 5% glycerol, 0.5 mM TCEP; ~1:1 monomer:duplex (~56 uM), 5x sinefungin; well 0.1 M HEPES pH 7.8, 10% PEG 8000, 3% PEG 6000; 19 C. The note with it: protein: recombinant; tags: N-terminal His-tag; chain copies: 2; 5' overhang 1 nt on each strand, 18 bp.

B1: GAATC 18-bp duplex with 1-nt overhangs (dsDNA)
DNA 1: CGATTCAATGAATCCCAAG
DNA 2: GCTTGGGATTCATTGAATC
As to B1, the binding result in data set [1] is reported as “binds”.

B2: Hemimethylated GAATC duplex (dsDNA)
DNA 1: CGATTCAATGAATCCCAAG
DNA 2: GCTTGGGATTCATTGAATC
modifications: N6-methyladenine (printed M) at position 8 of strand 2 (GATTC, non-target strand)
As to B2, in data set [2], the binding result is “binds”.
